Target: the molecule itself
Test: cryo-EM structure; endogenous SEAC purified from yeast via Sea4-TAP (IgG Dynabeads, TEV elution in 20 mM HEPES-NaOH pH 7.4, 300 mM NaCl, 2 mM DTT), on graphene-oxide-coated grids

B1: Sea4-TAP (natural protein, UniProt P38164 1-1038, looked up)
chain: MGLIKKVTHWSYDNLIDYLSVNPTRDEVTHYKVDPENESDESIIKLHTVKDFGSITCLDYSESEIGMIGVGEKNGYLRIFNISGQNSSSPASHAPVGLNANNETSMTNASGGKAAQAENIVGSVSNLKDTQGYPVSETNYDIRVRAKKQRCINSLGINTNGLIAMGLDRNKHDSSLQIWDMNYHDDSHETINPMFSYCTNESIVSLKFLNDTSVLAASTKFLKEIDVRSPNPIYQHPTRLTYDIKLNPFNDWQFSTYGDDGTLAIWDRRKLSDQASLGDLNVASPLLTFEKLVGSGAASRKYMNSCFRWSCVRNNEFATLHRGDTIKRWRLGYYCDSNRDIAADDDNEMNIENLFVSSVHDTNTMYDRVATFDYIPRSNNGTSLICMRQSGTIYRMPISEVCSKAILNNRNSLLLSNFENTEIDEIRVNNEHEKSNLENVKTILKNLSFEDLDVSEDYFPSGHDEPNNEIEYSELSEEENEGSNDVLDSKRGFELFWKPEKLLEKDISVIMRTRASLGYGLDPMNTVEMIDSSKNLQNNAYIRNTWRWIAIAKASVDDGTMVSGDLDLGYEGVIGIWNGINGISNQDRYRQETILSDKQLNKEMEKIIKLRRKNRDRNSPIANAAGSPKYVQRRLCLIISGWDLSRSDYEDKYNIIMKNGHYEKAAAWAVFFGDIPKAVEILGSAKKERLRLIATAIAGYLAYKDLPGNNAWRQQCRKMSSELDDPYLRVIFAFIADNDWWDILYEPAISLRERLGVALRFLNDTDLTTFLDRTSSTVIENGELEGLILTGITPNGIDLLQSYVNKTSDVQSAALISIFGSPRYFRDQRVDEWIQTYRDMLKSWELFSMRARFDVLRSKLSRTKTGVLTADIKPRQIYIQCQNCKQNINTPRTSSPSSAVSTSAGNYKNGEAYRRNNADYKKFNTGSSEAQAADEKPRHKYCCPHCGSSFPRCAICLMPLGTSNLPFVINGTQSRDPMQTEDSQDGANRELVSRKLKLNEWFSFCLSCNHGMHAGHAEEWFDRHNVCPTPGCTCQCNK
notes: Sea4, S. cerevisiae, endogenous subunit of the SEAC (SEACAT, core), TAP-tagged; Captured by the TAP tag on IgG beads; the complex was released with TEV protease before SDS-PAGE and cryo-EM; Written 'Sea4-TAP'; Four copies in the SEAC; source: endogenous, yeast cells expressing Sea4-TAP; in lysate, purified on IgG-coupled Dynabeads and eluted with TEV protease
B1 was tested, and the “stoichiometry N” value was 4.

From publication PMC9646525, “Cryo-EM structure of the SEA complex” (Nature, 2022)
